Target: T1, B型肉毒毒素抗原 (Clostridium Botulinum, UniProt P10844 2-1291)
T1 sequence: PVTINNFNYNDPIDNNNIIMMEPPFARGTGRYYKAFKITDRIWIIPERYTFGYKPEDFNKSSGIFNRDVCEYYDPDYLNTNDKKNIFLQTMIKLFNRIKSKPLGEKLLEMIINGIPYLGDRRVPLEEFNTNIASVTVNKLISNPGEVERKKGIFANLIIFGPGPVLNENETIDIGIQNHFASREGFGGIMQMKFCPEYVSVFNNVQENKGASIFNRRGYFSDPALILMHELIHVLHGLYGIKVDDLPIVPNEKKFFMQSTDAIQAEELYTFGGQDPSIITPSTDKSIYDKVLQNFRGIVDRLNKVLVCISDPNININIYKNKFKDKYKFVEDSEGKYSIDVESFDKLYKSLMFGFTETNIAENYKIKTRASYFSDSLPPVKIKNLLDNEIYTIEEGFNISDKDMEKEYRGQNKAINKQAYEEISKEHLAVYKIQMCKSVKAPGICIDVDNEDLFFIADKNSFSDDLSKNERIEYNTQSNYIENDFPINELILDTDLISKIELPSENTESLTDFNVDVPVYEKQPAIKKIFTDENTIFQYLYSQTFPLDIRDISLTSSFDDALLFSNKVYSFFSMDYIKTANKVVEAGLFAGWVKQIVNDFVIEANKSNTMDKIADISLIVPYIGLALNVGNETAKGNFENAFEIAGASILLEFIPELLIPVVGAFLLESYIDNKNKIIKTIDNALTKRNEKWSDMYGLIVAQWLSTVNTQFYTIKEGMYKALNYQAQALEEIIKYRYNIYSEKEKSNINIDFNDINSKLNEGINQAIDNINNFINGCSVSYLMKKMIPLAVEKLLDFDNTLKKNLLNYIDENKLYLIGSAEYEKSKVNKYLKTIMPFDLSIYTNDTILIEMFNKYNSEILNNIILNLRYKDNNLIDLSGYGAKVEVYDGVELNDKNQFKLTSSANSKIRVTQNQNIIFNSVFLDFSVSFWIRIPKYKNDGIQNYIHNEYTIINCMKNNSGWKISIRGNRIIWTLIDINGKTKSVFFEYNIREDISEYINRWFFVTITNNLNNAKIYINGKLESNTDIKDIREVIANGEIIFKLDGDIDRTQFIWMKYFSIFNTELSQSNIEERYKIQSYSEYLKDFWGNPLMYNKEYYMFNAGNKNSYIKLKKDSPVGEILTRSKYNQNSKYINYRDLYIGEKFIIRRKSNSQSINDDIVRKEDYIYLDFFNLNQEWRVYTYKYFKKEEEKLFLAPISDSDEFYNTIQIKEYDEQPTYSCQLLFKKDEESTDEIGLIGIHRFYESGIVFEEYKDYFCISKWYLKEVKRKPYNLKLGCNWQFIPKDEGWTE
Assay: ELISA

B1: 人源抗A型肉毒神经毒素基因工程抗体 HuAb-BNa 单链抗体 (ScFv) (scFv)
scFv: QVQLQESGPGLVKPSETLSLTCTVSGGSISSGSYYWGWIRQPPGKGLEWIGSIYYSGSTYYNPSLKSRVTISVDTSKNQFSLMLSSVTAADTAVYYCARQGSSGYYQNWFDPWGQGTLVTVSSSGGGGSGGGGSGGGGDVVMTQSPGTLSLSPGERATLSCRASQSVSSSYLAWYQQKPGQAPRLLIYGASSRATGIPDRFSGSGSGTDFTLTISRPEPEDFAVYYCQQPGFTFGPGTKVEIKRTVAA
B1: no binding.
